Among the data in patent publication US20210309745A1 (TAYU HUAXIA BIOTECH MEDICAL GROUP, published 2021) are koff values, retold here.

The target in the test is hPD-L1 (antigen of the Fortebio Octet assay) (human, UniProt Q9NZQ7 19-238, limits assumed). As to the kind of experiment: BLI, Fortebio Octet; format not stated. The source says: The anti-hPD-L1 scFv-hFc Wt and scFv-hFc Mt antibodies were identified by SDS Page Gel […]. […] The binding affinities of the scFv-hFc antibodies to hPD-L1, as compared to that of the parental antibody were examined by FACS and the results are shown in FIG. 7. […] The binding affinities and kinetics of the scFv-hFc antibodies (scFv-hFc Wt and scFv-hFc Mt) to hPD-L1, as compared to that of the parental antibody (anti-PD-L1 IgG1), were further analyzed using the Fortebio Octet system.
Background: In BLI a coated tip is dipped into the sample, and binding shifts an interference pattern.

Sequence of hPD-L1 (antigen of the Fortebio Octet assay) (Q9NZQ7 19-238 limits assumed): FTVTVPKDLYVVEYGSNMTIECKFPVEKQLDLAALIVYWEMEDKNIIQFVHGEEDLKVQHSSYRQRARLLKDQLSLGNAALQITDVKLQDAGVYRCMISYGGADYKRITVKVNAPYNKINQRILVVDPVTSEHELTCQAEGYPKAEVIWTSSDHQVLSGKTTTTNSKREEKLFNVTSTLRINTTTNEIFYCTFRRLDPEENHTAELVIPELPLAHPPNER

B1: anti-PD-L1 IgG1 (parental antibody of Example 3) (antibody, V domains shown)
VH: EVQLQQSGAELVKPGASVKLSCTASGFNIKDTYMYWVKQRPEQGLECIGRIDPANDNTKYDPKFQGKATITADTSSNTAYVQLASLTSEDTAVYYCARAKNLLNYFDYWGQGTTLTVSS
VL: DIQMTQSPSSLSASLGERVTLSCRASQEISGYLSWLQQKPDGTIKRLIYATSTLDSGVPKRFSGSRSGSDYSLTISSLESEDFADYYCLQYAIYPLTFGAGTKLELKR
notes: IgG1; also called parental control antibody
By koff is commonly meant a measure of how fast the partners let go of each other. High values mean fast dissociation, low ones slow dissociation. Consider B1, for which the dissociation rate constant (koff) is 2.72e-05 s⁻¹.
